We go through two molecules from patent publication US20160145657A1, “Methods and Materials for Producing 7-Carbon Chemicals via a C9 Route” (INVISTA North America S.á.r.l., priority 2014, published 2016).

Series [1] can be described thus: ω-transaminase activity, reverse direction (7-aminoheptanoate to pimelate semialdehyde), L-alanine formation by RP-HPLC. It counts as biochemical. The settings on record: cell free extract, 10 mM 7-aminoheptanoate, 10 mM pyruvate, pH 7.5, 25° C., 4 h; FIG. 13. As for the experimental part:
(§1) A nucleotide sequence encoding an N-terminal His-tag was added to the nucleic acid sequences from Chromobacterium violaceum, Pseudomonas syringae, Rhodobacter sphaeroides, and Vibrio fluvialis encoding the ω-transaminases of SEQ ID NOs: 7, 9, 10 and 12, respectively (see FIG. 6) such that N-terminal HIS tagged ω-transaminases could be produced. Each of the resulting modified genes was cloned into a pET21a expression vector under control of the T7 promoter and each expression vector was transformed into a BL21[DE3] E. coli host. The resulting recombinant E. coli strains were cultivated at 37° C. in a 250 mL shake flask culture containing 50 mL LB media and antibiotic selection pressure, with shaking at 230 rpm. Each culture was induced overnight at 16° C. using 1 mM IPTG.
(§2) The pellet from each induced shake flask culture was harvested via centrifugation. Each pellet was resuspended and lysed via sonication. The cell debris was separated from the supernatant via centrifugation and the cell free extract was used immediately in enzyme activity assays.
Enzyme activity assays in the reverse direction (i.e., 7-aminoheptanoate to pimelate semialdehyde) were performed in a buffer composed of a final concentration of 50 mM HEPES buffer (pH=7.5), 10 mM 7-aminoheptanoate, 10 mM pyruvate and 100 μM pyridoxyl 5′ phosphate. Each enzyme activity assay reaction was initiated by adding cell free extract of the ω-transaminase gene product or the empty vector control to the assay buffer containing the 7-aminoheptanoate and incubated at 25° C. for 4 h, with shaking at 250 rpm. The formation of L-alanine from pyruvate was quantified via RP-HPLC.

Series [2] can be described thus: ω-transaminase activity, forward direction (pimelate semialdehyde to 7-aminoheptanoate), pyruvate formation by RP-HPLC. Type of series: biochemical. The settings on record: conclusion from reverse and forward assays of Example 1. The method, then: as §1, §2
Enzyme activity in the forward direction (i.e., pimelate semialdehyde to 7-aminoheptanoate) was confirmed for the transaminases of SEQ ID NO 9, SEQ ID NO 10 and SEQ ID NO 12. Enzyme activity assays were performed in a buffer composed of a final concentration of 50 mM HEPES buffer (pH=7.5), 10 mM pimelate semialdehyde, 10 mM L-alanine and 100 μM pyridoxyl 5′ phosphate. Each enzyme activity assay reaction was initiated by adding a cell free extract of the ω-transaminase gene product or the empty vector control to the assay buffer containing the pimelate semialdehyde and incubated at 25° C. for 4 h, with shaking at 250 rpm. The formation of pyruvate was quantified via RP-HPLC.

A short description of series [3]: ω-transaminase activity, 7-aminoheptanol to 7-oxoheptanol, L-alanine formation by RP-HPLC. It counts as biochemical. As for the experimental part:
A nucleotide sequence encoding an N-terminal His-tag was added to the Chromobacterium violaceum, Pseudomonas syringae and Rhodobacter sphaeroides nucleic acids encoding the ω-transaminases of SEQ ID NOs: 7, 9 and 10, respectively (see FIG. 6) such that N-terminal HIS tagged ω-transaminases could be produced. The modified genes were cloned into a pET21a expression vector under the T7 promoter. Each expression vector was transformed into a BL21[DE3] E. coli host. Each resulting recombinant E. coli strain were cultivated at 37° C. in a 250 mL shake flask culture containing 50 mL LB media and antibiotic selection pressure, with shaking at 230 rpm. Each culture was induced overnight at 16° C. using 1 mM IPTG.
as §2
Enzyme activity assays in the reverse direction (i.e., 7-aminoheptanol to 7-oxoheptanol) were performed in a buffer composed of a final concentration of 50 mM HEPES buffer (pH=7.5), 10 mM 7-aminoheptanol, 10 mM pyruvate, and 100 μM pyridoxyl 5′ phosphate. Each enzyme activity assay reaction was initiated by adding cell free extract of the ω-transaminase gene product or the empty vector control to the assay buffer containing the 7-aminoheptanol and then incubated at 25° C. for 4 h, with shaking at 250 rpm. The formation of L-alanine was quantified via RP-HPLC.

For series [4] the following is noted: literature reports; cited from earlier work.
Series [5] in a line: carboxylate reductase activity, pimelate to pimelate semialdehyde, NADPH consumption at 340 nm. Type of series: biochemical. Conditions: purified enzyme enhanced by sfp gene product, 2 mM pimelate, pH 7.5, room temperature, 20 min; FIG. 8. The method, then: A nucleotide sequence encoding a HIS-tag was added to the nucleic acid sequences from Segniliparus rugosus and Segniliparus rotundus that encode the carboxylate reductases of SEQ ID NOs: 4 (EFV11917.1) and 6 (ADG98140.1), respectively (see FIG. 6), such that N-terminal HIS tagged carboxylate reductases could be produced. Each of the modified genes was cloned into a pET Duet expression vector along with a sfp gene encoding a HIS-tagged phosphopantetheine transferase from Bacillus subtilis, both under the T7 promoter. Each expression vector was transformed into a BL21[DE3] E. coli host and the resulting recombinant E. coli strains were cultivated at 37° C. in a 250 mL shake flask culture containing 50 mL LB media and antibiotic selection pressure, with shaking at 230 rpm. Each culture was induced overnight at 37° C. using an auto-induction media.
The pellet from each induced shake flask culture was harvested via centrifugation. Each pellet was resuspended and lysed via sonication, and the cell debris was separated from the supernatant via centrifugation. […]
Enzyme activity assays (i.e., from pimelate to pimelate semialdehyde) were performed in triplicate in a buffer composed of a final concentration of 50 mM HEPES buffer (pH=7.5), 2 mM pimelate, 10 mM MgCl2, 1 mM ATP and 1 mM NADPH. […] The consumption of NADPH was monitored by absorbance at 340 nm. […]

The nature of series [6]: carboxylate reductase activity, N7-acetyl-7-aminoheptanoate to N7-acetyl-7-aminoheptanal, NADPH consumption at 340 nm. Type of series: biochemical. The settings on record: purified enzyme enhanced by sfp gene product, 2 mM N7-acetyl-7-aminoheptanoate, pH 7.5, room temperature, 20 min; FIG. 10. As for the experimental part:
The activity of each of the N-terminal His-tagged carboxylate reductases of SEQ ID NOs: 3, 5, and 6 (see Examples 2 and 3, and FIG. 6) for converting N7-acetyl-7-aminoheptanoate to N7-acetyl-7-aminoheptanal was assayed in triplicate in a buffer composed of a final concentration of 50 mM HEPES buffer (pH=7.5), 2 mM N7-acetyl-7-aminoheptanoate, 10 mM MgCl2, 1 mM ATP, and 1 mM NADPH. The assays were initiated by adding purified carboxylate reductase and phosphopantetheine transferase or the empty vector control to the assay buffer containing the N7-acetyl-7-aminoheptanoate then incubated at room temperature for 20 min. The consumption of NADPH was monitored by absorbance at 340 nm.

Series [7] in a line: carboxylate reductase activity, pimelate semialdehyde to heptanedial, NADPH consumption at 340 nm. Type of series: biochemical. The settings on record: purified enzyme enhanced by sfp gene product, 2 mM pimelate semialdehyde, pH 7.5, room temperature, 20 min; FIG. 11. As for the experimental part: The N-terminal His-tagged carboxylate reductase of SEQ ID NO: 6 (see Example 3 and FIG. 6) was assayed using pimelate semialdehyde as substrate. The enzyme activity assay was performed in triplicate in a buffer composed of a final concentration of 50 mM HEPES buffer (pH=7.5), 2 mM pimelate semialdehyde, 10 mM MgCl2, 1 mM ATP and 1 mM NADPH. The enzyme activity assay reaction was initiated by adding purified carboxylate reductase and phosphopantetheine transferase or the empty vector control to the assay buffer containing the pimelate semialdehyde and then incubated at room temperature for 20 min. The consumption of NADPH was monitored by absorbance at 340 nm.

B1: SEQ ID NO 7: Chromobacterium violaceum ω-transaminase, Genbank Accession No. AAQ59697.1 (protein)
chain: MQKQRTTSQWRELDAAHHLHPFTDTASLNQAGARVMTRGEGVYLWDSEGNKIIDGMAGLWCVNVGYGRKDFAEAARRQMEELPFYNTFFKTTHPAVVELSSLLAEVTPAGFDRVFYTNSGSESVDTMIRMVRRYWDVQGKPEKKTLIGRWNGYHGSTIGGASLGGMKYMHEQGDLPIPGMAHIEQPWWYKHGKDMTPDEFGVVAARWLEEKILEIGADKVAAFVGEPIQGAGGVIVPPATYWPEIERICRKYDVLLVADEVICGFGRTGEWFGHQHFGFQPDLFTAAKGLSSGYLPIGAVFVGKRVAEGLIAGGDFNHGFTYSGHPVCAAVAHANVAALRDEGIVQRVKDDIGPYMQKRWRETFSRFEHVDDVRGVGMVQAFTLVKNKAKRELFPDFGEIGTLCRDIFFRNNLIMRACGDHIVSAPPLVMTRAEVDEMLAVAERCLEEFEQTLKARGLA
Take B1: the “acceptance of 7-aminoheptanoate as substrate (conversion of pyruvate to L-alanine) against the empty vector control” value in series [1] is on record as “accepted 7-aminoheptanote as substrate”. Besides, the “reversibility of ω-transaminase activity: pimelate semialdehyde accepted, 7-aminoheptanoate synthesized” value in series [2] is “accepted pimelate semialdehyde as substrate and synthesized 7-aminoheptanoate as a reaction product”. In addition, the “acceptance of 7-aminoheptanol as substrate (conversion of pyruvate to L-alanine) against the empty vector control” value in series [3] (cell free extract, 10 mM 7-aminoheptanol, 10 mM pyruvate, pH 7.5, 25° C., 4 h, FIG. 17) was “accepted 7-aminoheptanol as substrate”. In addition, in series [3] (inferred from reverse direction assay and Example 1), the “acceptance of 7-oxoheptanol as substrate forming 7-aminoheptanol, concluded from reversibility” value is “accept 7-oxoheptanol as substrate and form 7-aminoheptanol”. In addition, the “activity with 7-aminoheptanoate / 7-aminoheptanoic acid (to pimelate semialdehyde)” value in series [4] is recorded as “demonstrated analogous activity accepting 7-aminoheptanoic acid as amino donor”.

B2: SEQ ID NO: 6: Segniliparus rotundus carboxylate reductase, Genbank Accession No. ADG98140.1 (protein)
chain: MTQSHTQGPQASAAHSRLARRAAELLATDPQAAATLPDPEVVRQATRPGLRLAERVDAILSGYADRPALGQRSFQTVKDPITGRSSVELLPTFDTITYRELRERATAIASDLAHHPQAPAKPGDFLASIGFISVDYVAIDIAGVFAGLTAVPLQTGATLATLTAITAETAPTLFAASIEHLPTAVDAVLATPSVRRLLVFDYRAGSDEDREAVEAAKRKIADAGSSVLVDVLDEVIARGKSAPKAPLPPATDAGDDSLSLLIYTSGSTGTPKGAMYPERNVAHFWGGVWAAAFDEDAAPPVPAINITFLPLSHVASRLSLMPTLARGGLMHFVAKSDLSTLFEDLKLARPTNLFLVPRVVEMLYQHYQSELDRRGVQDGTREAEAVKDDLRTGLLGGRILTAGFGSAPLSAELAGFIESLLQIHLVDGYGSTEAGPVWRDGYLVKPPVTDYKLIDVPELGYFSTDSPHPRGELAIKTQTILPGYYKRPETTAEVFDEDGFYLTGDVVAQIGPEQFAYVDRRKNVLKLSQGEFVTLAKLEAAYSSSPLVRQLFVYGSSERSYLLAVIVPTPDALKKFGVGEAAKAALGESLQKIARDEGLQSYEVPRDFIIETDPFTVENGLLSDARKSLRPKLKEHYGERLEAMYKELADGQANELRDIRRGVQQRPTLETVRRAAAAMLGASAAEIKPDAHFTDLGGDSLSALTFSNFLHDLFEVDVPVGVIVSAANTLGSVAEHIDAQLAGGRARPTFATVHGKGSTTIKASDLTLDKFIDEQTLEAAKHLPKPADPPRTVLLTGANGWLGRFLALEWLERLAPAGGKLITIVRGKDAAQAKARLDAAYESGDPKLAGHYQDLAATTLEVLAGDFSEPRLGLDEATWNRLADEVDFISHPGALVNHVLPYNQLFGPNVAGVAEIIKLAITTRIKPVTYLSTVAVAAGVEPSALDEDGDIRTVSAERSVDEGYANGYGNSKWGGEVLLREAHDRTGLPVRVFRSDMILAHQKYTGQVNATDQFTRLVQSLLATGLAPKSFYELDAQGNRQRAHYDGIPVDFTAESITTLGGDGLEGYRSYNVFNPHRDGVGLDEFVDWLIEAGHPITRIDDYDQWLSRFETSLRGLPESKRQASVLPLLHAFARPGPAVDGSPFRNTVFRTDVQKAKIGAEHDIPHLGKALVLKYADDIKQLGLL
For the molecule B2, the “acceptance of pimelate as substrate (NADPH consumption) against the empty vector control” value in series [5] was “accepted pimelate as substrate”. In addition, the “acceptance of N7-acetyl-7-aminoheptanoate as substrate (NADPH consumption) against the empty vector control” value in series [6] was “accepted N7-acetyl-7-aminoheptanoate as substrate”. Besides, the “acceptance of pimelate semialdehyde as substrate (NADPH consumption) against the empty vector control” value in series [7] is on record as “accepted pimelate semialdehyde as substrate”.
